Sequences and labels used below:
T1: recombinant purified human IL-12 p70 (human, UniProt P29459 23-219)
T1 sequence 1: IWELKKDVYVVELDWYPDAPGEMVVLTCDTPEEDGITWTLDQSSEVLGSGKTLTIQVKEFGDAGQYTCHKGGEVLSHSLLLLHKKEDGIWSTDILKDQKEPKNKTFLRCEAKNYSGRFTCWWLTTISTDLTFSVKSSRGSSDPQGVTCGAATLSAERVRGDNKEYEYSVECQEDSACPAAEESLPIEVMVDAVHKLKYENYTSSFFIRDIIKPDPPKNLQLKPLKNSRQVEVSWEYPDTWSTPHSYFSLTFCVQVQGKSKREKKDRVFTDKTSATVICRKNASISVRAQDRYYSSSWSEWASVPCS
T1 sequence 2: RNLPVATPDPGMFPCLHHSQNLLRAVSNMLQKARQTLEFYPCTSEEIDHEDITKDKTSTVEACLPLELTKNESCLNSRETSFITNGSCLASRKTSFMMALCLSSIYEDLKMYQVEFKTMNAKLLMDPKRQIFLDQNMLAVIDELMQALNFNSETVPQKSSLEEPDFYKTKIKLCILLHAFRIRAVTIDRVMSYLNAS

T2: recombinant purified cyno IL-12 p70 (cynomolgus monkey)
T2 chain 1: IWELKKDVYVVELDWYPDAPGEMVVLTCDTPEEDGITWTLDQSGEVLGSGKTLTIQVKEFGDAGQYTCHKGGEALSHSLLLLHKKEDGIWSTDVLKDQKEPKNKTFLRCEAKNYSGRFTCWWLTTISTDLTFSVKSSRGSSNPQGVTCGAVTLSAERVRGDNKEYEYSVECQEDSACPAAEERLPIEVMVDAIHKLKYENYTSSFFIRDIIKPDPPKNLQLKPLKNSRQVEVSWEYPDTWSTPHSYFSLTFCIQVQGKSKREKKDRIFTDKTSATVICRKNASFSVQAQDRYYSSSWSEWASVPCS
T2 chain 2: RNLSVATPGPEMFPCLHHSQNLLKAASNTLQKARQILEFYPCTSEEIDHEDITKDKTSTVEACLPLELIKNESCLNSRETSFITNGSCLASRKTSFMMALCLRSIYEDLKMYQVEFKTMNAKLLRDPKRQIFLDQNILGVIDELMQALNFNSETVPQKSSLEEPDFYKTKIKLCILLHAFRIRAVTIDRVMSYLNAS

B1: anti-IL-12p40 humanized antibody 3G7.3 (antibody, human IgG1, kappa, L234A L235A, V domains shown)
VH: EVQLVQSGAEVKKPGASVKVSCKATGYTFNDYWIEWVRQAPGQGLEWMGGFSHGSGSTNYNEKFKGRVTMTADSSTNTAYMELRSLRSDDTAVYYCARRRFRGMDYWGQGTTVTVSS
VL: EIVMTQSPATLSVSPGERATLSCKASQSVSNDVAWYQQKPGQAPRLLIYYASNRYTGVPDRFSGSGSGTEFTLTISSLQSEDFAVYYCQQDYSSPWSFGGGTKVEIKR
notes: Back-mutated CDR-grafted antibody; COS cells
B2: anti-IL-12p40 humanized antibody 1D4.6 (antibody, human IgG1, kappa, L234A L235A, V domains shown)
VH: EVTLRESGPALVKPTQTLTLTCTFSGFSLSKSVMGVSWIRQPPGKALEWLAHIYWDDDKYYNPSLKSRLTISKDTSKNQVVLTMTNMDPVDTATYYCTRRGIRSAMDYWGQGTTVTVSS
VL: DVVMTQSPDSLAVSLGERATINCKASQSVSNDVAWYQQKPGQPPKLLIYYASNRYTGVPDRFSGSGYGTDFTLTISSLQAEDVAVYYCQQDYNSPWTFGGGTKVEIKR
notes: COS cells
B3: anti-IL-12p40 humanized antibody 1D4.8 (antibody, human IgG1, kappa, L234A L235A, V domains shown)
VH: B2 VH with S30R
VL: B2 VL with V2I, Y67S
notes: as for B1
B4: anti-IL-12p40 humanized antibody 1A6.9 (antibody, human IgG1, kappa, L234A L235A, V domains shown)
VH: EVTLRESGPALVKPTQTLTLTCTFSGFSLSTSGMGVSWIRQPPGKALEWLAHIWWDGDNYYNPSLKSRLTISKDTSKNQVVLTMTNMDPVDTATYYCARRTRVNYAMDYWGQGTTVTVSS
VL: B2 VL with D1S, Y36F
notes: as for B1
B5: anti-IL-12p40 humanized antibody 8E1.3 (antibody, human IgG1, kappa, L234A L235A, V domains shown)
VH: EVKLVESGGGLVQPGGSLRLSCAASGFTFSDYGMVWVRQAPGKGLEWVASISSGSSNIYYADTVKGRFTISRDDSKNTLYLQMNSLKTEDTAVYYCARNPYWGQGTTVTVSS
VL: DIVMTQSPSSLSASVGDRVTITCKASQNVGTNVAWYQQKPEKAPKSLIYSASHRYSGVPSRFSGSGSGTDFTLTISSLQPEDFATYYCQQYNSYPLTFGGGTKVEIKR
notes: as for B1
B6: chimeric anti-human IL-12p40 antibody 1D4-Chim (antibody, human IgG1, kappa, L234A L235A, V domains shown)
VH: QVTLKESGPGILQPSQTLSLTCSFSGFSLRKSVMGVSWIRQPSGKGLEWLAHIYWDDDKYYNPSLKSRLTISKDPSRNQVFLKITSVDTADAATYYCTRRGIRSAMDYWGQGTSVTVSS
VL: SVVMTQTPKFLLVSAGDRVTITCKASQSVSNDVAWYQQKPGQSPKLLIYYASNRYTGVPDRFTGSGYGTDFTFIISTVRAEDLAVYFCQQDYNSPWTFGGGTKLEIKR
B7: chimeric anti-human IL-12p40 antibody 3G7-Chim (antibody, human IgG1, kappa, L234A L235A, V domains shown)
VH: QVQLQQSGAELMKPGASVKISCKATGYTFNDYWIEWVKQRPGHGLEWIGGFSHGSGSTNYNEKFKGKATFTADSSSNTAYMQLSSLTSEDSAVYYCARRRFRGMDYWGQGTSVTVSS
VL: B6 VL with V2I, I74T, S76T, R79Q, N93S, T97S
B8: chimeric antibody 3G7/1D4-Chim (chimeric 3G7 heavy chain with 1D4 chimeric light chain) (antibody, human IgG1, kappa, L234A L235A, V domains shown)
VH: B7 VH
VL: B6 VL
B9: chimeric anti-human IL-12p40 antibody 1A6-Chim (antibody, human IgG1, kappa, L234A L235A, V domains shown)
VH: QVTLKESGPGILKPSQTLSLTCSFSGFSLSTSGMGVSWIRQPSGKGLEWLAHIWWDGDNYYNPSLKSQLTISKDTSRNQVFLRIATVDTADTATYYCARRTRVNYAMDYWGQGTSVTVSS
VL: B6 VL with Y36F, I74T, R79Q
B10: chimeric anti-human IL-12p40 antibody 8E1-Chim (antibody, human IgG1, kappa, L234A L235A, V domains shown)
VH: B5 VH with L18R, R19K, S75P, K76N, Y80F, N84R, K87R, T88S, V93M, V108L
VL: DIVMTQSQKFMSTSVGDRVSVTCKASQNVGTNVAWYQQKPGQSPKGLIYSASHRYSGVPDRFAGSGSGTDFTLTISNVQSEDLAEYFCQQYNSYPLTFGGGTKLELKR

Substitutions are numbered along the chain they refer to.

The first experiment addresses T1, recombinant purified human IL-12 p70. In words: cell-based or functional assay.
With B1, the “Av. IC50 (nM) huIL-12, PHA blast assay” value was determined as 0.42 nM.

For B2, the “Av. IC50 (nM) huIL-12, PHA blast assay” value came to 0.15 nM.

As to B3, the “Av. IC50 (nM) huIL-12, PHA blast assay” value worked out at 0.095 nM.

Consider B4, for which the “Av. IC50 (nM) huIL-12, PHA blast assay” value came out at 0.15 nM.

B5: the “Av. IC50 (nM) huIL-12, PHA blast assay” value came out at 10 nM.

A further experiment concerns the target T2, recombinant purified cyno IL-12 p70. In words: cell-based or functional assay.
In the case of B6, the “Average IC50 (nM) Cyno IL-12, PHA blast IFN-γ assay” value came to 0.07 nM.

Regarding B7, the “Average IC50 (nM) Cyno IL-12, PHA blast IFN-γ assay” value came to 0.32 nM.

As to B8, the “Average IC50 (nM) Cyno IL-12, PHA blast IFN-γ assay” value is 0.29 nM.

On to B9, for which the “Average IC50 (nM) Cyno IL-12, PHA blast IFN-γ assay” value worked out at 0.02 nM.

B10: the “Average IC50 (nM) Cyno IL-12, PHA blast IFN-γ assay” value is 0.15 nM.

A further experiment has as its target T1, recombinant purified human IL-12 p70. In words: cell-based or functional assay. This is another data set of the same source.
B6: the “Average IC50 (nM) Human IL-12, PHA blast IFN-γ assay” value amounted to 0.021 nM.

On to B7, for which the “Average IC50 (nM) Human IL-12, PHA blast IFN-γ assay” value was determined as 0.12 nM.

For B8, the “Average IC50 (nM) Human IL-12, PHA blast IFN-γ assay” value stood at 0.11 nM.

In the case of B9, the “Average IC50 (nM) Human IL-12, PHA blast IFN-γ assay” value was determined as 0.021 nM.

Turning to B10, the “Average IC50 (nM) Human IL-12, PHA blast IFN-γ assay” value amounted to 0.17 nM.

Another experiment shares this target. In words: SPR (BIAcore) as in Example 1.1.B, human IL-12p70. The method, then:
Approximately 5000 RU of goat anti-mouse IgG, (Fcγ), fragment specific polyclonal antibody (Pierce Biotechnology Inc, Rockford, Ill.) diluted in 10 mM sodium acetate (pH 4.5) was directly immobilized across a CM5 research grade biosensor chip using a standard amine coupling kit according to manufacturer's instructions and procedures at 25 μg/ml. Unreacted moieties on the biosensor surface were blocked with ethanolamine. Modified carboxymethyl dextran surface in flowcell 2 and 4 was used as a reaction surface. Unmodified carboxymethyl dextran without goat anti-mouse IgG in flow cell 1 and 3 was used as the reference surface. For kinetic analysis, rate equations derived from the 1:1 Langmuir binding model were fitted simultaneously to association and dissociation phases of all eight injections (using global fit analysis) with the use of Biaevaluation 4.0.1 software. Purified antibodies were diluted in HEPES-buffered saline for capture across goat anti-mouse IgG specific reaction surfaces. Mouse antibodies to be captured as a ligand (25 μg/ml) were injected over reaction matrices at a flow rate of 5 μl/min. The association and dissociation rate constants, kₒₙ (unit M⁻¹ s⁻¹) and koff (unit s⁻¹) were determined under a continuous flow rate of 25 μl/min. Rate constants were derived by making kinetic binding measurements at ten different antigen concentrations ranging from 10-200 nM. The equilibrium dissociation constant (unit M) of the reaction between mouse antibodies and recombinant purified human IL-12 p70 or recombinant purified human IL-12 p40 was then calculated from the kinetic rate constants by the following formula: KD=koff/kₒₙ. Binding is recorded as a function of time and kinetic rate constants are calculated. In this assay, on-rates as fast as 10⁶M⁻¹ s⁻¹ and off-rates as slow as 10⁻⁶ can be measured. […]
Turning to B1, the Kd (as a rule, the concentration at which binding is half-saturated) is 0.2 nM; the koff (as a rule, a measure of how fast the partners let go of each other) worked out at 0.00015 s⁻¹; the kon (commonly a measure of how fast the partners come together) amounted to 780000 M⁻¹ s⁻¹.

For B2, the Kd was below 0.01 nM, the koff was below 1e-05 s⁻¹ and the kon was 480000 M⁻¹ s⁻¹.

Take B3: the Kd is below 0.01 nM, the koff is below 1e-05 s⁻¹ and the kon is 120000 M⁻¹ s⁻¹.

On to B4, for which the Kd was below 0.01 nM, the koff was below 1e-05 s⁻¹ and the kon stood at 350000 M⁻¹ s⁻¹.

With B5, the Kd amounted to 0.76 nM, the dissociation rate constant (koff) was found to be 0.001 s⁻¹ and the kon is 1.3e+06 M⁻¹ s⁻¹.

The values above are taken from US20140178332A1 (published 2014).
